In paper PMC4015496 (Genes & Development, 2014):

T1: CTCFwt, full length, GST tag removed (human), P49711
T1 chain: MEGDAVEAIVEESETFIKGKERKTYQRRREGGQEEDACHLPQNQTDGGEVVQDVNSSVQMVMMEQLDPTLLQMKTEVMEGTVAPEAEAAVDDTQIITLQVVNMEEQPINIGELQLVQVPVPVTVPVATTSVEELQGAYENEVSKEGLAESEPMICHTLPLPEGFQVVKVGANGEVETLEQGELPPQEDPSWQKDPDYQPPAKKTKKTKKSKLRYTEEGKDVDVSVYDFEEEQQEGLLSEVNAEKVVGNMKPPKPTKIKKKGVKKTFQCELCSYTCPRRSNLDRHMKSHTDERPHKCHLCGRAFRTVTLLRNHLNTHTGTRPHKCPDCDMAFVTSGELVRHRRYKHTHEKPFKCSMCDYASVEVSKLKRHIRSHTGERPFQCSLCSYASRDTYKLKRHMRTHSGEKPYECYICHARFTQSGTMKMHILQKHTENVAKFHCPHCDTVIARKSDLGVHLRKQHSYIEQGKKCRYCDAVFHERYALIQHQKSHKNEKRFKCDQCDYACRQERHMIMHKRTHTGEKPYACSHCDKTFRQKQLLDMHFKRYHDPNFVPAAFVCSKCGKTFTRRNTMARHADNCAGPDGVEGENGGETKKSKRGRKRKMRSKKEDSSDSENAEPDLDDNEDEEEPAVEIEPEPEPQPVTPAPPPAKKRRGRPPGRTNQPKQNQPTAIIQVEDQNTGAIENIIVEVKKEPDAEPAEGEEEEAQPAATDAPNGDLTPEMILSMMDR


Tests used:
SEC = biological target: the molecule itself; assay: SEC
[1] = biological target: T1, CTCFwt, full length, GST tag removed …; assay: SEC; settings: remark: other sources report otherwise

| stoichiometry N [1] | Binder | binding result (SEC) |
| --- | --- | --- |
| – | RBR fragment of CTCF (purified, used in gel filtration) (domain or fragment, human, UniProt P49711 520-727, looked up) EKPYACSHCDKTFRQKQLLDMHFKRYHDPNFVPAAFVCSKCGKTFTRRNTMARHADNCAGPDGVEGENGGETKKSKRGRKRKMRSKKEDSSDSENAEPDLDDNEDEEEPAVEIEPEPEPQPVTPAPPPAKKRRGRPPGRTNQPKQNQPTAIIQVEDQNTGAIENIIVEVKKEPDAEPAEGEEEEAQPAATDAPNGDLTPEMILSMMDR | binds |
| 3 | CTCFwt, full length, GST tag removed, P49711 1-727 (natural protein) MEGDAVEAIVEESETFIKGKERKTYQRRREGGQEEDACHLPQNQTDGGEVVQDVNSSVQMVMMEQLDPTLLQMKTEVMEGTVAPEAEAAVDDTQIITLQVVNMEEQPINIGELQLVQVPVPVTVPVATTSVEELQGAYENEVSKEGLAESEPMICHTLPLPEGFQVVKVGANGEVETLEQGELPPQEDPSWQKDPDYQPPAKKTKKTKKSKLRYTEEGKDVDVSVYDFEEEQQEGLLSEVNAEKVVGNMKPPKPTKIKKKGVKKTFQCELCSYTCPRRSNLDRHMKSHTDERPHKCHLCGRAFRTVTLLRNHLNTHTGTRPHKCPDCDMAFVTSGELVRHRRYKHTHEKPFKCSMCDYASVEVSKLKRHIRSHTGERPFQCSLCSYASRDTYKLKRHMRTHSGEKPYECYICHARFTQSGTMKMHILQKHTENVAKFHCPHCDTVIARKSDLGVHLRKQHSYIEQGKKCRYCDAVFHERYALIQHQKSHKNEKRFKCDQCDYACRQERHMIMHKRTHTGEKPYACSHCDKTFRQKQLLDMHFKRYHDPNFVPAAFVCSKCGKTFTRRNTMARHADNCAGPDGVEGENGGETKKSKRGRKRKMRSKKEDSSDSENAEPDLDDNEDEEEPAVEIEPEPEPQPVTPAPPPAKKRRGRPPGRTNQPKQNQPTAIIQVEDQNTGAIENIIVEVKKEPDAEPAEGEEEEAQPAATDAPNGDLTPEMILSMMDR | – |
